Experimental findings from the supplement of paper PMC5998384 are described below.

For data set [1], the system named is HeLa Kyoto. Briefly: solubility in G1/S (NP-40 vs SDS abundance) (log2 ratio); higher = more soluble. The conditions noted are these: cell cycle stage: G1/S.
Data set [2] deals with HeLa Kyoto. Briefly: thermal stability score vs G1/S (z-score of summed log2 fold changes over temperatures); higher = more thermally stable than in G1/S.
Data set [3] has as its system HeLa Kyoto. As to the kind of experiment: melting temperature (median over replicates), in situ; higher = more thermally stable.
Data set [4] deals with HeLa Kyoto. Briefly: solubility change mitosis vs G1/S (difference of NP-40 vs SDS log2 ratios) (log2 ratio difference); higher = more soluble in mitosis.
[5] abbreviates: cell cycle stage: early G1 (4.5 h after nocodazole release).
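For melting temperature (median over replicates), in situ in this document: HeLa Kyoto cells synchronized by double thymidine or nocodazole block, proteins quantified by TMT10plex mass spectrometry, three independent biological replicates.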
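For solubility change mitosis vs G1/S (difference of NP-40 vs SDS log2 ratios) in this document: synchronized HeLa Kyoto cells (double thymidine block for G1/S, nocodazole release for mitosis), protein amounts in NP-40 versus SDS lysates quantified by mass spectrometry, three biological replicates.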
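For solubility in G1/S (NP-40 vs SDS abundance) in this document: HeLa Kyoto cells arrested at G1/S by double thymidine block, proteins quantified by TMT10plex mass spectrometry in mild NP-40 versus SDS extracts, three biological replicates.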
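For thermal stability score vs G1/S (z-score of summed log2 fold changes over temperatures) in this document: synchronized HeLa Kyoto cells, proteins quantified by TMT10plex mass spectrometry, three biological replicates, mitosis taken 0.5 h after nocodazole release, G1/S directly after double thymidine block.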

As to “MNIDDKLEGLFLKCGGIDEMQSSRTMVVMGGVSGQSTVSGELQDSVLQDRSMPHQEILAADEVLQESEMRQQDMISHDELMVHEETVKNDEEQMETHERLPQGLQYALNVPISVKQEITFTDVSEQLMRDKKQIREPVDLQKKKKRKQRSPAKILTINEDGSLGLKTPKSHVCEHCNAAFRTNYHLQRHVFIHTGEKPFQCSQCDMRFIQKYLLQRHEKIHTGEKPFRCDECGMRFIQKYHMERHKRTHSGEKPYQCEYCLQYFSRTDRVLKHKRMCHENHDKKLNRCAIKGGLLTSEEDSGFSTSPKDNSLPKKKRQKTEKKSSGMDKESALDKSDLKKDKNDYLPLYSSSTKVKDEYMVAEYAVEMPHSSVGGSHLEDASGEIHPPKLVLKKINSKRSLKQPLEQNQTISPLSTYEESKVSKYAFELVDKQALLDSEGNADIDQVDNLQEGPSKPVHSSTNYDDAMQFLKKKRYLQAASNNSREYALNVGTIASQPSVTQAAVASVIDESTTASILESQALNVEIKSNHDKNVIPDEVLQTLLDHYSHKANGQHEISFSVADTEVTSSISINSSEVPEVTPSENVGSSSQASSSDKANMLQEYSKFLQQALDRTSQNDAYLNSPSLNFVTDNQTLPNQPAFSSIDKQVYATMPINSFRSGMNSPLRTTPDKSHFGLIVGDSQHSFPFSGDETNHASATSTQDFLDQVTSQKKAEAQPVHQAYQMSSFEQPFRAPYHGSRAGIATQFSTANGQVNLRGPGTSAEFSEFPLVNVNDNRAGMTSSPDATTGQTFG [ZNF148]”, the “solubility in G1/S (log2)” value in data set [1] was -0.236. Also, the thermal stability score in data set [2] (setting [5]) was 1.13; in data set [2] (cell cycle stage: mitosis) it was -1.33. The melting temperature in data set [3] (cell cycle stage: G1/S) worked out at 51.6 °C; in data set [3] (cell cycle stage: mitosis) it was 51.1 °C. Moreover, the “solubility change mitosis (log2)” value in data set [4] was 0.123.
Take “MNIMDFNVKKLAADAGTFLSRAVQFTEEKLGQAEKTELDAHLENLLSKAECTKIWTEKIMKQTEVLLQPNPNARIEEFVYEKLDRKAPSRINNPELLGQYMIDAGTEFGPGTAYGNALIKCGETQKRIGTADRELIQTSALNFLTPLRNFIEGDYKTIAKERKLLQNKRLDLDAAKTRLKKAKAAETRNSSEQELRITQSEFDRQAEITRLLLEGISSTHAHHLRCLNDFVEAQMTYYAQCYQYMLDLQKQLGSFPSNYLSNNNQTSVTPVPSVLPNAIGSSAMASTSGLVITSPSNLSDLKECSGSRKARVLYDYDAANSTELSLLADEVITVFSVVGMDSDWLMGERGNQKGKVPITYLELLN [SH3GLB1]”: the “solubility in G1/S (log2)” value in data set [1] amounted to 0.531. The thermal stability score in data set [2] (setting [5]) amounted to 1.13; in data set [2] (cell cycle stage: mitosis), 2.44. In addition, the melting temperature in data set [3] (cell cycle stage: G1/S) amounted to 48.1 °C; in data set [3] (cell cycle stage: mitosis), 48.7 °C. The “solubility change mitosis (log2)” value in data set [4] is 0.00172.
Take “MNKHQKPVLTGQRFKTRKRDEKEKFEPTVFRDTLVQGLNEAGDDLEAVAKFLDSTGSRLDYRRYADTLFDILVAGSMLAPGGTRIDDGDKTKMTNHCVFSANEDHETIRNYAQVFNKLIRRYKYLEKAFEDEMKKLLLFLKAFSETEQTKLAMLSGILLGNGTLPATILTSLFTDSLVKEGIAASFAVKLFKAWMAEKDANSVTSSLRKANLDKRLLELFPVNRQSVDHFAKYFTDAGLKELSDFLRVQQSLGTRKELQKELQERLSQECPIKEVVLYVKEEMKRNDLPETAVIGLLWTCIMNAVEWNKKEELVAEQALKHLKQYAPLLAVFSSQGQSELILLQKVQEYCYDNIHFMKAFQKIVVLFYKADVLSEEAILKWYKEAHVAKGKSVFLDQMKKFVEWLQNAEEESESEGEEN [BZW2]”: the “solubility in G1/S (log2)” value in data set [1] was determined as 0.446. The thermal stability score in data set [2] (setting [5]) is 2.74; in data set [2] (cell cycle stage: mitosis) it was 3.19. Also, the melting temperature turned out to be 51.3 °C in data set [3] (cell cycle stage: G1/S) and 50.1 °C in data set [3] (cell cycle stage: mitosis). Also, in data set [4], the “solubility change mitosis (log2)” value was -0.11.
Consider “MNKLYIGNLSENAAPSDLESIFKDAKIPVSGPFLVKTGYAFVDCPDESWALKAIEALSGKIELHGKPIEVEHSVPKRQRIRKLQIRNIPPHLQWEVLDSLLVQYGVVESCEQVNTDSETAVVNVTYSSKDQARQALDKLNGFQLENFTLKVAYIPDEMAAQQNPLQQPRGRRGLGQRGSSRQGSPGSVSKQKPCDLPLRLLVPTQFVGAIIGKEGATIRNITKQTQSKIDVHRKENAGAAEKSITILSTPEGTSAACKSILEIMHKEAQDIKFTEEIPLKILAHNNFVGRLIGKEGRNLKKIEQDTDTKITISPLQELTLYNPERTITVKGNVETCAKAEEEIMKKIRESYENDIASMNLQAHLIPGLNLNALGLFPPTSGMPPPTSGPPSAMTPPYPQFEQSETETVHLFIPALSVGAIIGKQGQHIKQLSRFAGASIKIAPAEAPDAKVRMVIITGPPEAQFKAQGRIYGKIKEENFVSPKEEVKLEAHIRVPSFAAGRVIGKGGKTVNELQNLSSAEVVVPRDQTPDENDQVVVKITGHFYACQVAQRKIQEILTQVKQHQQQKALQSGPPQSRRK [IGF2BP3]”, for which the “solubility in G1/S (log2)” value in data set [1] was 0.241. Further, the thermal stability score amounted to 0.549 in data set [2] (setting [5]) and 0.841 in data set [2] (cell cycle stage: mitosis). Moreover, the melting temperature in data set [3] (cell cycle stage: G1/S) was determined as 46.9 °C; in data set [3] (cell cycle stage: mitosis) it was 47.6 °C. In addition, in data set [4], the “solubility change mitosis (log2)” value amounted to 0.0855.
